B1: Paired immunoglobulin-like type 2 receptor alpha (Homo sapiens), Q9UKJ1 (parent)
chain: MGRPLLLPLLPLLLPPAFLQPSGSTGSGPSYLYGVTQPKHLSASMGGSVEIPFSFYYPWELATAPDVRISWRRGHFHRQSFYSTRPPSIHKDYVNRLFLNWTEGQKSGFLRISNLQKQDQSVYFCRVELDTRSSGRQQWQSIEGTKLSITQAVTTTTQRPSSMTTTWRLSSTTTTTGLRVTQGKRRSDSWHISLETAVGVAVAVTVLGIMILGLICLLRWRRRKGQQRTKATTPAREPFQNTEEPYENIRNEGQNTDPKLNPKDDGIVYASLALSSSTSPRAPPSHRPLKSPQNETLYSVLKA
B2: Paired immunoglobulin-like type 2 receptor alpha (Homo sapiens), Q9UKJ1 (parent)
chain: B1 chain
partner: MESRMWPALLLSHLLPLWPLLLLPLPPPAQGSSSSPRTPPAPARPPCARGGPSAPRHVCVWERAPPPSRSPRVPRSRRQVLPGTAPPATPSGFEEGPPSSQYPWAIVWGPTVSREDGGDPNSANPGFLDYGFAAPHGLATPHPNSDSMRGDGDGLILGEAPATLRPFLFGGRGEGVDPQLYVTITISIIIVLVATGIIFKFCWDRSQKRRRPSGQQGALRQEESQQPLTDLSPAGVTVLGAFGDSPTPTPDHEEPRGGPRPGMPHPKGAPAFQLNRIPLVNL
B3: Paired immunoglobulin-like type 2 receptor alpha (Homo sapiens), Q9UKJ1 (parent)
chain: B1 chain
partner: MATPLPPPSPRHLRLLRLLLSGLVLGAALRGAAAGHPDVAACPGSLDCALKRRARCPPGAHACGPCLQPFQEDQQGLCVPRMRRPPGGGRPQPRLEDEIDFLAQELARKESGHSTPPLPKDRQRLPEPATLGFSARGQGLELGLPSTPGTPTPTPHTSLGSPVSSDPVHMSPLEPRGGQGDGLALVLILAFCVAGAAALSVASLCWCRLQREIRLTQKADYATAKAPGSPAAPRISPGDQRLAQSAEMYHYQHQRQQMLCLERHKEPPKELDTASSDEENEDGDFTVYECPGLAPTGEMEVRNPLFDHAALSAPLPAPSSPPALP

Variants of: B1
Conditions: with co4a_human C4A

| effect of a mutation on the interaction | Variant |
| --- | --- |
| increasing interaction strength | S80G |
| increasing interaction strength | R78G |
| disrupting interaction strength | F76A |

Variants of: B2
Conditions: with pianp_human PIANP

| effect of a mutation on the interaction | Variant |
| --- | --- |
| increasing interaction strength | S80G |
| disrupting interaction strength | F76A |
| disrupting interaction strength | R72A |
| increasing interaction strength | R78G |

Variants of: B3
Conditions: with npdc1_human NPDC1, Q9NQX5

| Variant | effect of a mutation on the interaction |
| --- | --- |
| F76A | disrupting interaction strength |
| R72A | disrupting interaction strength |

Second part, the variant after the results:

| effect of a mutation on the interaction | Variant |
| --- | --- |
| increasing interaction strength | R78G |
| disrupting interaction strength | Q140A |
| increasing interaction strength | S141A |
| increasing interaction strength | S80G |

Variants of: B3
Conditions: with npdc1_human NPDC1, Q9NQX5
Remark: another data set of the same source

| effect of a mutation on the interaction | Variant |
| --- | --- |
| decreasing interaction strength | Q140A |

From IntAct's records for PubMed 30388101
